Data published in US20140271651A1 (AbbVie / Abbott, published 2014).

B1: anti-GP73 monoclonal antibody 1B-4863 (antibody, V domains shown)
VH: QVQLKESGPGLVAPSQSLSITCTVSGFSLTSYGVHWVRQSPGKGLEWLGVIWTGGSTNYNSALMSRLSISKDNSESQVFLKVNSLQTDDTGMYYCARDPGTDYFDYWGQGTTLTVSS
VL: DIVMTQSHKFMSTSIGDRVSISCKASQDVSIDVSWYQQKPGQSPTLLIYSASYRYIGVPDRFTGSGSGTAFTFTISSVQAEDLAIYYCQQHFTTPLTFGAGTKLELKR
notes: Biotin labelled in some assays; also called mAb 1B-4863; 1B-4863-Bt
B2: anti-GP73 monoclonal antibody 1B-3440 (antibody, V domains shown)
VH: EVQLVETGGGLVQPKGSLKLSCAASGFTFNTNAMNWVRQAPGKGLEWVARIRTKRYNYTTFYADSVKDRFTISRDDSQSMLFLQMNNLKTEDTAMYYCVTGGTGTFDYWGQGTTLTVSS
VL: EIVLTQSPTTMPASPGEKVTFTCSASSGISSNYLHWYQLKPGFSPKLLIYRTSNLASGVPARFSGGGSGTSYSLTIGTMEAEDVATYYCQQGFSIPLTFGAGTKLELKR
notes: Biotin labelled in some assays; also called mAb 1B-3440; 1B-3440-Bt
B3: anti-GP73 monoclonal antibody 1B-4971 (antibody, V domains shown)
VH: QVQLQQSGPALVKPGASVKMSCKASGYTFTNYVIHWVKQKPGQGLERIGYIWPYNDGTKFNEKFKGKATLTSDKSSSTAYMELSSLTSEDSAVYYCSSQQLAYWGQGTTLTVSS
VL: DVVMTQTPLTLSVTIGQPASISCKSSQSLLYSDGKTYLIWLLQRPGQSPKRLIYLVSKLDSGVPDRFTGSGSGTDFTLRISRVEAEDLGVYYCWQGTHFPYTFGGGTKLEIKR
notes: Biotin labelled in some assays; also called mAb 1B-4971; 1B-4971-Bt

Assays:
[1] = target: T1, GP73-hFc (human GP73 amino acids 63 to 400 fused at the C-terminus to human IgG1 Fc) (human); assay: EIA, supernatant 1:25 captured on sheep anti-mouse IgG Fc, GP73-hFc, biotin goat anti-GP73
T1 construct: Expressed in HEK293F, CHO or HepG2 cells; the host is named under assay; also called HEK expressed GP73-hFc; CHO expressed GP73-hFc
T1 chain: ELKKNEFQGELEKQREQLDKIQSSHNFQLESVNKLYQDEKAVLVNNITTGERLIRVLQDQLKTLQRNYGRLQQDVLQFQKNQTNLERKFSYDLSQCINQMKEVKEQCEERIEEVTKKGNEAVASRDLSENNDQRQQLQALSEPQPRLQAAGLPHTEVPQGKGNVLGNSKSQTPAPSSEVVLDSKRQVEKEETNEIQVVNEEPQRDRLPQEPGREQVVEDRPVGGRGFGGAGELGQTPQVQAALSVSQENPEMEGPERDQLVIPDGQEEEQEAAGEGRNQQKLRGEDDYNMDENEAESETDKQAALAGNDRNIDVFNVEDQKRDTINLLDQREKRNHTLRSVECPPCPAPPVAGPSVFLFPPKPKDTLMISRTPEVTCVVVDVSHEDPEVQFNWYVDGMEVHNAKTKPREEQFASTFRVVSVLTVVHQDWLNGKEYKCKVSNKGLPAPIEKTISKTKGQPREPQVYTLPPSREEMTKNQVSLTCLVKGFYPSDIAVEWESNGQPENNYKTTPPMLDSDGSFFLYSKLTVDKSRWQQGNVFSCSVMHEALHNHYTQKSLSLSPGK
Protocol: (§1) Cell supernatant samples were analyzed for anti-GP73 antibodies by EIA. Sheep anti-mouse IgG Fc (Jackson Immunoresearch) was coated on 96 well micro-titer EIA plates at 1 μg/mL. After the capture reagent was coated on the solid phase, it was removed and the plates were blocked using a BSA/PBS block solution. The wells were washed with distilled water and cell supernatants were added to the blocked plates and allowed to incubate at room temperature for at least one hour. A mouse monoclonal antibody 14H4-23 (Drexel University) was used a positive control. The anti-mouse IgG Fc captured the anti-GP73 mouse antibody from the supernatant. Following the incubation, the supernatants were washed off using distilled water. An irrelevant mouse-human chimeric antibody was added to all wells and incubated at room temperature for 30 min to block any captured mouse antibodies that react with the human IgG Fc fusion protein linked to the GP73 antigen. The wells were washed with distilled water and GP73-hFc was added to the plates at 200 ng/mL and incubated for 30 min. Following this incubation, the antigen was washed from the plates using distilled water. Biotin labeled goat anti-GP73 was added to the plates at 200 ng/mL and incubated for 30 min at room temperature. The plates were washed and streptavidin-HRPO (Jackson Immunoresearch) (diluted to approximately 200 ng/mL) was added to the plates and allowed to incubate for 30 min. The plates were washed with distilled water and OPD substrate was used as the chromagen to generate signal. Plates were read at 492 nm and the results were analyzed.
(§2) Positive clones were expanded to 24 well plates in IMDM supplemented with 10% FBS and HT supplement. Following 5-14 days growth, the 24 well cultures were evaluated by EIA in the same manner as previously described, except the supernatant samples were titrated against GP73-hFc and BSA to eliminate non-specific protein binders. Once again the clones generating signal at least 3 times greater than background were considered positive and selected for further evaluation.

[2] = target: T2, bovine serum albumin (bovine, UniProt P02769 25-607); assay: EIA, supernatant 1:25 captured on sheep anti-mouse IgG Fc, BSA in place of antigen
T2 construct: also called BSA
Protocol: as §1, §2

[3] = target: T1, GP73-hFc (human GP73 amino acids 63 to …); assay: EIA, supernatant mAb captured on sheep anti-mouse IgG Fc, GP73-hFc 200 ng/mL, biotin goat anti-GP73/streptavidin-HRPO; background 0.06
Protocol: as §1

[4] = target: T2, bovine serum albumin; assay: sandwich EIA, rabbit anti-GP73 coated 1 ug/mL, BSA background, supernatant 1:125, HRP goat anti-mouse IgG Fc
Protocol: as §1
(§3) The 24 well cultures were then evaluated by EIA for their ability to form a sandwich with the rabbit anti-GP73 used as a capture reagent coated directly on the solid phase. The same EIA protocol previously described was used, except rabbit anti-GP73 antibody was coated at 1 μg/mL, the GP73-hFc was tested at 200 ng/mL, and a HRP labeled goat anti-mouse IgG FC antibody was used as the conjugate reagent to generate signal.

[5] = target: T1, GP73-hFc (human GP73 amino acids 63 to …); assay: sandwich EIA, rabbit anti-GP73 coated 1 ug/mL, GP73-hFc 200 ng/mL, supernatant 1:125, HRP goat anti-mouse IgG Fc
Protocol: as §1, §3

T2 sequence (P02769 25-607 limits assumed): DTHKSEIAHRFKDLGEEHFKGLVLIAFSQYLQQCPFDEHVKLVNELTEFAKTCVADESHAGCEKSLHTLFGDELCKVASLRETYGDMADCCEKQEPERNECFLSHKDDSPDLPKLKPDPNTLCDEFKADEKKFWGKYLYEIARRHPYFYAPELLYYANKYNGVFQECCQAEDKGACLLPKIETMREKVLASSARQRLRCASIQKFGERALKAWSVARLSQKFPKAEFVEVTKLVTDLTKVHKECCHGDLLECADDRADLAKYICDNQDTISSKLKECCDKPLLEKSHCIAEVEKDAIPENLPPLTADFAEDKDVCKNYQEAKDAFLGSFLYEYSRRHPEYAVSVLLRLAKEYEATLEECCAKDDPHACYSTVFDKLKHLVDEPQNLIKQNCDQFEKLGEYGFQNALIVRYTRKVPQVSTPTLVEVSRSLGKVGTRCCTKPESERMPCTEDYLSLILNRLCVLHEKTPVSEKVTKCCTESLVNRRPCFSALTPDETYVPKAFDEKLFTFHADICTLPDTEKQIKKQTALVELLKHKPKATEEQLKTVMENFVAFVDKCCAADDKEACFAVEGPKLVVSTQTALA

| Binder | GP73-hFc OD (A492) [1] | BSA Background OD (A492) [2] | OD (A492) [3] | BSA Background OD (A492) [4] | GP73-hFc OD (A492) [5] |
| --- | --- | --- | --- | --- | --- |
| B1 | 1.61 OD (A492) | 0.06 OD (A492) | 1.44 OD (A492) | 0.1 OD (A492) | 1.41 OD (A492) |
| B2 | 1.51 OD (A492) | 0.09 OD (A492) | 1.46 OD (A492) | 0.12 OD (A492) | 0.76 OD (A492) |
| B3 | 2.1 OD (A492) | 0.1 OD (A492) | 1.79 OD (A492) | 0.1 OD (A492) | 1.6 OD (A492) |
